# Laboratory results: patent US20020082410, “Insulin promoter factor, and uses related thereto” (Curis, Inc., published 2002)
# Target: Ipf1 (IPF1, Pdx1) (Mus musculus, UniProt P52946 SEQ:1-284)
# Assay: EMSA; same mobility as IPF1 from betaTC1 nuclear extract; competition with wild-type and mutant P1 sites showed same specificity as endogenous IPF1
# Settings: tags: none; rabbit reticulocyte lysate from full-length cDNA in pGEM3
# Experimental: RNA prepared from the IPF1 cDNA template was translated in vitro and the DNA binding specificity of the in vitro translation product was determined using an electrophoretic mobility shift assay (EMSA) and the insulin promoter PI site as a probe (Ohisson et al., (1991) Mol Endocrin 5:897-904; see also Materials and Methods below). The in vitro translation product bound to the P1 element and migrated to the same relative position in the gel as IPF1 from the βTC1 nuclear extract.
# Ipf1 (IPF1, Pdx1), sequence (P52946 other isoform, or with tags, fused parts or gaps): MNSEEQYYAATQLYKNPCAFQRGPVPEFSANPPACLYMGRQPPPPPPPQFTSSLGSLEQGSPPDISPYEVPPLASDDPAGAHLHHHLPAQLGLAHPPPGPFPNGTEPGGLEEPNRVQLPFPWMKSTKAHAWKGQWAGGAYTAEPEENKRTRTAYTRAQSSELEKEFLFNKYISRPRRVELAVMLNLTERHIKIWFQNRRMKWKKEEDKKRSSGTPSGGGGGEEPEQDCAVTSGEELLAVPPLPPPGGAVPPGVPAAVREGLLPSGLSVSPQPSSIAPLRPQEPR
binder,measurement,value
P1 wild-type insulin promoter element (dsDNA) DNA 1: GCCCTTAATGGGCCAAACGGCA DNA 2: TGCCGTTTGGCCCATTAAGGGC,binding result,binds
